In patent US11932673 (IONTAS, dated 2024):

B1: KB_A07 Shk (antibody, V domains shown)
VH: EVQLVESGGGLVRPGGSLRLSCAASGFTFSSYAMSWVRQAPGKGLEWVSAISGSGGSTYYADSVKGRFTISRDNTKNSLYLQMTSLRADDTAFYYCVKDFGPGYGTGWFDYWGPGTLVTVSS
VL: NWYQQKPGKAPKLLIYAAGVRSCIDTIPKSRCTAFQCKHSMKYRLSFCRKTCGTCSRSGVPSRFSGSGSGTDFTLTISSLQPEDFATYYCQQGASPPYTFGQGTKVEIKR
B2: KB_A12 Shk (antibody, V domains shown)
VH: EVQLVESGGGLVRPGGSLRLSCAASGFTFSSYAMSWVRQAPGKGLEWVSAISGSGGSTYYADSVKGRFTISRDNTKNSLYLQMTSLRADDTAFYYCVKDFGPGYGTGWFDYWGPGTLVTVSS
VL: NWYQQLPGKAPKLLIYAAGRRSCIDTIPKSRCTAFQCKHSMKYRLSFCRKTCGTCANSGVSDRFSAAKSGTSASLAINGLRSEDEADYYCAAWDDSLNGYVFGTGTKLTVLG
B3: KB_A07 Kaliotoxin (antibody, V domains shown)
VH: EVQLVESGGGLVRPGGSLRLSCAASGFTFSSYAMSWVRQAPGKGLEWVSAISGSGGSTYYADSVKGRFTISRDNTKNSLYLQMTSLRADDTAFYYCVKDFGPGYGTGWFDYWGPGTLVTVSS
VL: DIQMTQSPSSLSASVGDRVTITCRASQSISSYLNWYQQKPGKAPKLLIYAAGVGVEINVKCSGSPQCLKPCKDAGMRFGKCMNRKCHCTPKSRSGVPSRFSGSGSGTDFTLTISSLQPEDFATYYCQQGASPPYTFGQGTKVEIKR
B4: KB_A07 (scFv, V domains shown)
VH: EVQLVESGGGLVRPGGSLRLSCAASGFTFSSYAMSWVRQAPGKGLEWVSAISGSGGSTYYADSVKGRFTISRDNTKNSLYLQMTSLRADDTAFYYCVKDFGPGYGTGWFDYWGPGTLVTVSS
VL: YLNWYQQKPGKAPKLLIYAAGVCPRILMRCKQDSDCLAGCVCGPNGFCGSRSGVPSRFSGSGSGTDFTLTISSLQPEDFATYYCQQGASPPYTFGQGTKVEIKR
B5: KB_A12 (scFv, V domains shown)
VH: EVQLVESGGGLVRPGGSLRLSCAASGFTFSSYAMSWVRQAPGKGLEWVSAISGSGGSTYYADSVKGRFTISRDNTKNSLYLQMTSLRADDTAFYYCVKDFGPGYGTGWFDYWGPGTLVTVSS
VL: AVNWYQQLPGKAPKLLIYAAGRCPRILMRCKQDSDCLAGCVCGPNGFCGANSGVSDRFSAAKSGTSASLAINGLRSEDEADYYCAAWDDSLNGYVFGTGTKLTVLG
B6: KB_A12 MoKa-1 (antibody, V domains shown)
VH: EVQLVESGGGLVRPGGSLRLSCAASGFTFSSYAMSWVRQAPGKGLEWVSAISGSGGSTYYADSVKGRFTISRDNTKNSLYLQMTSLRADDTAFYYCVKDFGPGYGTGWFDYWGPGTLVTVSS
VL: QSVLTQPPSVSEAPRQRVTITCSGSSSNIGNNAVNWYQQLPGKAPKLLIYAAGRINVKCSLPQQCIKPCKDAGMRFGKCMNKKCRCYSANSGVSDRFSAAKSGTSASLAINGLRSEDEADYYCAAWDDSLNGYVFGTGTKLTVLG
B7: KB_A07 MoKa-1 (antibody, V domains shown)
VH: EVQLVESGGGLVRPGGSLRLSCAASGFTFSSYAMSWVRQAPGKGLEWVSAISGSGGSTYYADSVKGRFTISRDNTKNSLYLQMTSLRADDTAFYYCVKDFGPGYGTGWFDYWGPGTLVTVSS
VL: DIQMTQSPSSLSASVGDRVTITCRASQSISSYLNWYQQKPGKAPKLLIYAAGVINVKCSLPQQCIKPCKDAGMRFGKCMNKKCRCYSSRSGVPSRFSGSGSGTDFTLTISSLQPEDFATYYCQQGASPPYTFGQGTKVEIKR
B8: KB_A12 Kaliotoxin (antibody, V domains shown)
VH: EVQLVESGGGLVRPGGSLRLSCAASGFTFSSYAMSWVRQAPGKGLEWVSAISGSGGSTYYADSVKGRFTISRDNTKNSLYLQMTSLRADDTAFYYCVKDFGPGYGTGWFDYWGPGTLVTVSS
VL: QSVLTQPPSVSEAPRQRVTITCSGSSSNIGNNAVNWYQQLPGKAPKLLIYAAGRGVEINVKCSGSPQCLKPCKDAGMRFGKCMNRKCHCTPKANSGVSDRFSAAKSGTSASLAINGLRSEDEADYYCAAWDDSLNGYVFGTGTKLTVLG
B9: KB_A12_ProTx-III 2M 2Gly (antibody, V domains shown)
VH: EVQLVESGGGLVRPGGSLRLSCAASGFTFSSYAMSWVRQAPGKGLEWVSAISGSGGSTYYADSVKGRFTISRDNTKNSLYLQMTSLRADDTAFYYCVKDFGPGYGTGWFDYWGPGTLVTVSS
VL: VNWYQQLPGKAPKLLIYAAGRGCLKFGWKCNPRNDKCCSGLKCGSNHNWCKWHIGGANSGVSDRFSAAKSGTSASLAINGLRSEDEADYYCAAWDDSLNGYVFGTGTKLTVLG
B10: KB_A07_ProTx-III 2M Gly (antibody, V domains shown)
VH: EVQLVESGGGLVRPGGSLRLSCAASGFTFSSYAMSWVRQAPGKGLEWVSAISGSGGSTYYADSVKGRFTISRDNTKNSLYLQMTSLRADDTAFYYCVKDFGPGYGTGWFDYWGPGTLVTVSS
VL: […]
B11: KB_A12_ProTx-III 2M Gly (antibody, V domains shown)
VH: EVQLVESGGGLVRPGGSLRLSCAASGFTFSSYAMSWVRQAPGKGLEWVSAISGSGGSTYYADSVKGRFTISRDNTKNSLYLQMTSLRADDTAFYYCVKDFGPGYGTGWFDYWGPGTLVTVSS
VL: VNWYQQLPGKAPKLLIYAAGRGCLKFGWKCNPRNDKCCSGLKCGSNHNWCKWHIGANSGVSDRFSAAKSGTSASLAINGLRSEDEADYYCAAWDDSLNGYVFGTGTKLTVLG

These binders were tested against T1, human Kv 1.3 (human, UniProt P22001 1-575) (assay: cell-based or functional assay).
T1 sequence (P22001 whole entry): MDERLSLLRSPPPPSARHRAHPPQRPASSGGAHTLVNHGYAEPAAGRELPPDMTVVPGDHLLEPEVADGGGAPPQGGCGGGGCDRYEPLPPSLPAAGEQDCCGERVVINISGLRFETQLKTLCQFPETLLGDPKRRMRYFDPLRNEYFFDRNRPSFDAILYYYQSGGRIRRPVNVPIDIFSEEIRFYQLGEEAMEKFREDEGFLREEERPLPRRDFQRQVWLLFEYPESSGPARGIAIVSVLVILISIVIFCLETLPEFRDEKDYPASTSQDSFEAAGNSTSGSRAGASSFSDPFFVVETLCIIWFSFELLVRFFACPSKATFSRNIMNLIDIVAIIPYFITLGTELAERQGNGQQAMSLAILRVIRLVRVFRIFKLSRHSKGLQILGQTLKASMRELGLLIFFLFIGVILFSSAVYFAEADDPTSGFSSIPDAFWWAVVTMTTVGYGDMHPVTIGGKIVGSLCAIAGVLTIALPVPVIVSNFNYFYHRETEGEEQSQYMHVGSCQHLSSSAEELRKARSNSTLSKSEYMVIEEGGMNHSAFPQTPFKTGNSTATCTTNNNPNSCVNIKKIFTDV

**Q.** How did the “IC50 of inhibition of huKv1.3 currents, QPatch whole-cell patch clamp, CHO cells” value turn out when B1 was run?
**A.** 40 nM

**Q.** B2 was tested. Which “IC50 of inhibition of huKv1.3 currents, QPatch whole-cell patch clamp, CHO cells” value did it give?
**A.** 20 nM

**Q.** How did the “IC50 of inhibition of huKv1.3 currents, QPatch whole-cell patch clamp, CHO cells” value turn out when B3 was run?
**A.** 900 nM

Biological target: T1, human Kv 1.3
Assay: cell-based or functional assay
Remark: another data set of the same source

**Q.** For B4, which “IC50 of inhibition of huKv1.3 currents (extrapolated)” value (“IC50 of inhibition … (extrapolated)” below) is on record?
**A.** > 10000 nM

**Q.** B5 was tested. Which “IC50 of inhibition … (extrapolated)” value did it give?
**A.** > 10000 nM

**Q.** B6 was tested. Which “IC50 of inhibition … (extrapolated)” value did it give?
**A.** > 10000 nM

**Q.** For B7, which “IC50 of inhibition … (extrapolated)” value is on record?
**A.** > 10000 nM

**Q.** For B8, which “IC50 of inhibition … (extrapolated)” value is on record?
**A.** > 10000 nM

What follows are binders tested against T2, human Nav1.7 (human, UniProt Q15858 1-1988) (assay: cell-based or functional assay).
T2 sequence (Q15858 whole entry): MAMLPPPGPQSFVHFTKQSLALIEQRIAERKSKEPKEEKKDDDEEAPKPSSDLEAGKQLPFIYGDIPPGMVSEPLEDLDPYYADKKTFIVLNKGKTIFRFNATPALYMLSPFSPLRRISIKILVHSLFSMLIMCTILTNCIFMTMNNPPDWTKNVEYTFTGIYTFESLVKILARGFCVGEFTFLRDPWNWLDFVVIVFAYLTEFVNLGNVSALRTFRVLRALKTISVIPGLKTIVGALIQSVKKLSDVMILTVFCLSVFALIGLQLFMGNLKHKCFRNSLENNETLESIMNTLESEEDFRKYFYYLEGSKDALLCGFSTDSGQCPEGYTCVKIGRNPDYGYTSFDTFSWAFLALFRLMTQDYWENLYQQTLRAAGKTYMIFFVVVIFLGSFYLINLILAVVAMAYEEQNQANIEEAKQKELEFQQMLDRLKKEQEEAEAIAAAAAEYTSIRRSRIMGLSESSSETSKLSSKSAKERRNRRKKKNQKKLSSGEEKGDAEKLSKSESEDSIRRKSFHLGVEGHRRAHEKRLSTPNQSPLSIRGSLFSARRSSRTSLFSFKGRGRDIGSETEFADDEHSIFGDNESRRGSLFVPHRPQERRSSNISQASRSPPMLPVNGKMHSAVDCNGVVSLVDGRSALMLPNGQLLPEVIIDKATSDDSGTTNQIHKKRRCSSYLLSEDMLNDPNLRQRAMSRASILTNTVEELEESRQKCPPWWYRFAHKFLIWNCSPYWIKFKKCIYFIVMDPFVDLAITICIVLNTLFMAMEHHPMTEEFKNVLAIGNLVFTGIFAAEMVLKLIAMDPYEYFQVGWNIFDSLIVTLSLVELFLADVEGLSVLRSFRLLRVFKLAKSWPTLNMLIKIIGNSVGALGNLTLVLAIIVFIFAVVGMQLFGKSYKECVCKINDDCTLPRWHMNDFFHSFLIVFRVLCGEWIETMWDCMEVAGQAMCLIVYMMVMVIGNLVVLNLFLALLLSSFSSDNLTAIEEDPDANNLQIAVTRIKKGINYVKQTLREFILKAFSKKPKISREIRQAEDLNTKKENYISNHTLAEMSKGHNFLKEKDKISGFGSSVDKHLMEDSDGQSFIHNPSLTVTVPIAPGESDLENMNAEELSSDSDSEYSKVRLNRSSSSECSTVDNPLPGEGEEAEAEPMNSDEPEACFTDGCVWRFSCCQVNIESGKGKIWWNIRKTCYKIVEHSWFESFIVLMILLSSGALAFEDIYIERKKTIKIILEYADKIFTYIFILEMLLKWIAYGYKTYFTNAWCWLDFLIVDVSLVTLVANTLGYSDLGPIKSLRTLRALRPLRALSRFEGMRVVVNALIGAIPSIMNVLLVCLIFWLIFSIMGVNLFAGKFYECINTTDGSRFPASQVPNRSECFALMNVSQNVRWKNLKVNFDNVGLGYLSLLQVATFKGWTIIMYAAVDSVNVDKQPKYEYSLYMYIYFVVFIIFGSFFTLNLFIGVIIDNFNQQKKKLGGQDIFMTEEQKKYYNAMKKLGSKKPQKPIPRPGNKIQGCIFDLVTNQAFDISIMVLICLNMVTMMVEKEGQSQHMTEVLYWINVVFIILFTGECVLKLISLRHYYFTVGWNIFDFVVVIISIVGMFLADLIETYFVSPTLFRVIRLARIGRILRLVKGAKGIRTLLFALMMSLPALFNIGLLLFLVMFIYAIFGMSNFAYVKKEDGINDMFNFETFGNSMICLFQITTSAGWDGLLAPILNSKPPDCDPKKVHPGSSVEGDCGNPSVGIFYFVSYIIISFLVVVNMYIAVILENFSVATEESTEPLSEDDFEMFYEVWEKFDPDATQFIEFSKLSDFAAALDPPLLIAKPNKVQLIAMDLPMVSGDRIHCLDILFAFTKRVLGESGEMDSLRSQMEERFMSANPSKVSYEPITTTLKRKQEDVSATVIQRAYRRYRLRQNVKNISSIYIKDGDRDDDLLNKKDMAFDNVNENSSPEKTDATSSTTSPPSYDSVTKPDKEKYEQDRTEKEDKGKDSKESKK

**Q.** With B5 as the binder, how does the “IC50 of inhibition of Nav1.7 currents (extrapolated; IgG isotype control)” value read?
**A.** > 100000 nM

Biological target: T2, human Nav1.7
Assay: cell-based or functional assay
Remark: another data set of the same source

**Q.** B9 was tested. Which “IC50 of inhibition of Nav1.7 currents, QPatch, CHO cells” value (“IC50 of inhibition … QPatch, CHO cells” for short) did it give?
**A.** 1400 nM

**Q.** B10 was tested. Which “IC50 of inhibition … QPatch, CHO cells” value did it give?
**A.** 1100 nM

**Q.** How did the “IC50 of inhibition … QPatch, CHO cells” value turn out when B11 was run?
**A.** 1500 nM
